Where “and” joins values, the source holds several entries; their conditions need not be identical. Identical values can stand only once.
B1: mini-Gs 393 with C96A (domain or fragment)
chain: GIEKQLQKDKQVYRATHRLLLLGADNSGKSTIVKQMRIYHGGSGGSGGTSGIFETKFQVDKVNFHMFDVGGQRDERRKWIQAFNDVTAIIFVVDSSDYNRLQEALNDFKSIWNNRWLRTISVILFLNKQDLLAEKVLAGKSKIEDYFPEFARYTTPEDATPEPGEDPRVTRAKYFIRDEFLRISTASGDGRHYCYPHFTCAVDTENARRIFNDCRDIIQRMHLRQYELL
modifications: not checked
B2: mini-Go1 R12 (domain or fragment)
chain: IEKNLKEDGISAAKDVKLLLLGADNSGKSTIVKQMKIIHTTGIVETHFTFKNLHFRLFDVGGQRSERKKWIHCFEDVTAIIFCVDLSDYNRMHESLMLFDSICNNKFFIDTSIILFLNKKDLFGEKIKKSPLTICFPEYTGPNTYEDAAAYIQAQFESKNRSPNKEIYCHMTCATDTNNAQVIFDAVTDIIIANNLRGCGLY
modifications: not checked

Assays:
[1] = target: avi-β1AR-E (turkey β1-adrenergic receptor, β1AR-E construct with N-terminal biotinylated avi-tag) (turkey), P07700; assay: BLI; biotinylated avi-β1AR in LMNG on streptavidin biosensors, mini-G in solution; 500 μM isoprenaline; 20 mM TrisHCl pH 8.0, 150 mM NaCl, 15 mM MgCl2, 0.02% LMNG, 0.1% BSA; 25 °C; single point measurements, monophasic 1:1 local fit, n = 3
Sequence of avi-β1AR-E (turkey β1-adrenergic receptor, β1AR-E construct with N-terminal biotinylated avi-tag) (turkey), P07700 (P07700 other isoform, or with tags, fused parts or gaps): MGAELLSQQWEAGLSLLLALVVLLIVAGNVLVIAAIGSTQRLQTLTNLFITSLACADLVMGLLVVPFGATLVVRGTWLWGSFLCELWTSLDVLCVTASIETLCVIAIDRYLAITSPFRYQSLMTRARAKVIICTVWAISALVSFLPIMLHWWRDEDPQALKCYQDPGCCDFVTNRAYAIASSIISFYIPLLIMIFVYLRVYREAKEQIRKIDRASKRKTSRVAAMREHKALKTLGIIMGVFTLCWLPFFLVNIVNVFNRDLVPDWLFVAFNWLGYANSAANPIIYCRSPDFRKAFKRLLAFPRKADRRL

[2] = target: avi-β1AR-W (turkey β1-adrenergic receptor β1AR-MetΔ5, thermostabilised with E130W, N-terminal biotinylated avi-tag) (turkey), P07700; assay: BLI; biotinylated avi-tagged receptor in LMNG immobilised on streptavidin biosensors; 500 μM isoprenaline; mini-G in solution at a single concentration (0.125-4 μM); 20 mM TrisHCl pH 8.0, 150 mM NaCl, 15 mM MgCl2, 0.02% LMNG, 0.1% BSA; 25 °C; 1:1 monophasic local partial fit; one of n = 3 tips
Sequence of avi-β1AR-W (turkey β1-adrenergic receptor β1AR-MetΔ5, thermostabilised with E130W, N-terminal biotinylated avi-tag) (turkey), P07700 (P07700 other isoform, or with tags, fused parts or gaps E130W): as the sequence (P07700 other isoform, or with tags, fused parts or gaps) above, with E100W counted along it

[3] = target: avi-β1AR-E (turkey β1-adrenergic receptor, minimally thermostabilised construct with E130 restored, N-terminal biotinylated avi-tag) (turkey), P07700; assay: as above
Sequence of avi-β1AR-E (turkey β1-adrenergic receptor, minimally thermostabilised construct with E130 restored, N-terminal biotinylated avi-tag) (turkey), P07700 (P07700 other isoform, or with tags, fused parts or gaps): as the sequence (P07700 other isoform, or with tags, fused parts or gaps) above

Row | Binder | Kd [1] [nM] | Kd [2] | koff [2] | kon [2] | Kd [3] | koff [3] | kon [3] | fold reduction of kon against mini-Gs [1] [fold]
1 | B1 | 47 |  |  |  |  |  |  | 
2 | B2 | 1340 | 8.71 µM and 8.11 µM and 5.42 µM | 0.0102 s⁻¹ and 0.00894 s⁻¹ and 0.00914 s⁻¹ | 1170 M⁻¹ s⁻¹ and 1100 M⁻¹ s⁻¹ and 1690 M⁻¹ s⁻¹ | 1430 nM and 1120 nM and 1460 nM | 0.0042 s⁻¹ and 0.00358 s⁻¹ and 0.00401 s⁻¹ | 2950 M⁻¹ s⁻¹ and 3200 M⁻¹ s⁻¹ and 2740 M⁻¹ s⁻¹ | 50

— paper PMC10864275, “Binding kinetics drive G protein subtype selectivity at the β1-adrenergic receptor” (Nature Communications, 2024)
